Measured values as given in US20020137213A1 (published 2002).

B1: KO4+5 mutant Ad5 fiber protein (ΔG509, K510, ΔG538, T539) (other)
chain: MKRARPSEDTFNPVYPYDTETGPPTVPFLTPPFVSPNGFQESPPGVLSLRLSEPLVTSNGMLALKMGNGLSLDEAGNLTSQNVTTVSPPLKKTKSNINLEISAPLTVTSEALTVAAAAPLMVAGNTLTMQSQAPLTVHDSKLSIATQGPLTVSEGKLALQTSGPLTTTDSSTLTITASPPLTTATGSLGIDLKEPIYTQNGKLGLKYGAPLHVTDDLNTLTVATGPGVTINNTSLQTKVTGALGFDSQGNMQLNVAGGLRIDSQNRRLILDVSYPFDAQNQLNLRLGQGPLFINSAHNLDINYNKGLYLFTASNNSKKLEVNLSTAKGLMFDATAIAINAGDGLEFGSPNAPNTNPLKTKIGHGLEFDSNKAMVPKLGTGLSFDSTGAITVGNKNNDKLTLWTTPAPSPNCRLNAEKDAKLTLVLTKCGSQILATVSVLAVKGSLAPISGTVQSAHLIIRFDENGVLLNNSFLDPEYWNFRNGDLTEGTAYTNAVGFMPNLSAYPKSHTAKSNIVSQVYLNGDKTKPVTLTITLNQETGDTTPSAYSMSFSWDWSGHNYINEIFATSSYTFSYIAQE
B2: wildtype Ad5 fiber protein (other)
chain: MKRARPSEDTFNPVYPYDTETGPPTVPFLTPPFVSPNGFQESPPGVLSLRLSEPLVTSNGMLALKMGNGLSLDEAGNLTSQNVTTVSPPLKKTKSNINLEISAPLTVTSEALTVAAAAPLMVAGNTLTMQSQAPLTVHDSKLSIATQGPLTVSEGKLALQTSGPLTTTDSSTLTITASPPLTTATGSLGIDLKEPIYTQNGKLGLKYGAPLHVTDDLNTLTVATGPGVTINNTSLQTKVTGALGFDSQGNMQLNVAGGLRIDSQNRRLILDVSYPFDAQNQLNLRLGQGPLFINSAHNLDINYNKGLYLFTASNNSKKLEVNLSTAKGLMFDATAIAINAGDGLEFGSPNAPNTNPLKTKIGHGLEFDSNKAMVPKLGTGLSFDSTGAITVGNKNNDKLTLWTTPAPSPNCRLNAEKDAKLTLVLTKCGSQILATVSVLAVKGSLAPISGTVQSAHLIIRFDENGVLLNNSFLDPEYWNFRNGDLTEGTAYTNAVGFMPNLSAYPKSHGKTAKSNIVSQVYLNGDKTKPVTLTITLNGTQETGDTTPSAYSMSFSWDWSGHNYINEIFATSSYTFSYIAQE

Each molecule was assayed against coxsackie adenovirus receptor (CAR), human, on HeLa cells (human) (UniProt P78310) (assay: cell-based or functional assay).
In the case of “KO2 mutant Ad5 fiber protein (ΔV441, K442) (from UniProt P11818 1-581)”, the Mean % wt βgal activity, transduction of Hela cells is reported as 0.6 % wt, the Representative avg βgal activity (RLU/ug protein), transduction of Hela cells at 1000 particles per cell (RLU/ug protein) is reported as 3320 and the decrease in transduction efficiency, Hela cells is reported as greater than 160 fold. It also gave a fold reduction of β-galactosidase activity against wildtype fiber, Hela cells of 167 fold. For “KO5 mutant Ad5 fiber protein (ΔG538, T539) (from UniProt P11818 1-581)”, the Mean % wt βgal activity, transduction of Hela cells was 58.3 % wt and the Representative avg βgal activity (RLU/ug protein), transduction of Hela cells at 1000 particles per cell (RLU/ug protein) was 331000. With “KO1+2 mutant Ad5 fiber protein (S408E, P409A, ΔV441, K442) (from UniProt P11818 1-581)” the Mean % wt βgal activity, transduction of Hela cells was 0.1 % wt, the Representative avg βgal activity (RLU/ug protein), transduction of Hela cells at 1000 particles per cell (RLU/ug protein) was 472 and the fold reduction in fiber-mediated gene transfer, Hela cells was 1000 fold. For the same molecule, the fold reduction of β-galactosidase activity against wildtype fiber, Hela cells was 1000 fold. “KO9 mutant Ad5 fiber protein (V466H) (from UniProt P11818 1-581)” was tested, and the Mean % wt βgal activity, transduction of Hela cells was 80.9 % wt and the Representative avg βgal activity (RLU/ug protein), transduction of Hela cells at 1000 particles per cell (RLU/ug protein) was 391000. “KO11 mutant Ad5 fiber protein (Δ404-581, knob replaced by GCN4 isoleucine 31 amino acid peptide) (from UniProt P11818 1-403)” showed a Mean % wt βgal activity, transduction of Hela cells of 0.8 % wt, a Representative avg βgal activity (RLU/ug protein), transduction of Hela cells at 1000 particles per cell (RLU/ug protein) of 4520 and a fold reduction of β-galactosidase activity against wildtype fiber, Hela cells of 125 fold. Work on “KO10 mutant Ad5 fiber protein (P505A) (from UniProt P11818 1-581)” yielded a Mean % wt βgal activity, transduction of Hela cells of 79.6 % wt and a Representative avg βgal activity (RLU/ug protein), transduction of Hela cells at 1000 particles per cell (RLU/ug protein) of 447000. “KO2a mutant Ad5 fiber protein (ΔV441) (from UniProt P11818 1-581)” gave a Mean % wt βgal activity, transduction of Hela cells of 0.6 % wt, a Representative avg βgal activity (RLU/ug protein), transduction of Hela cells at 1000 particles per cell (RLU/ug protein) of 4000 and a decrease in transduction efficiency, Hela cells greater than 160 fold. For the same molecule, the fold reduction of β-galactosidase activity against wildtype fiber, Hela cells was 167 fold. “KO2c mutant Ad5 fiber protein (V441A, K442A) (from UniProt P11818 1-581)” showed a Mean % wt βgal activity, transduction of Hela cells of 8.5 % wt, a Representative avg βgal activity (RLU/ug protein), transduction of Hela cells at 1000 particles per cell (RLU/ug protein) of 53300 and a fold reduction in fiber-mediated gene transfer, Hela cells of 12 fold. Work on “KO2b mutant Ad5 fiber protein (ΔK442) (from UniProt P11818 1-581)” yielded a Mean % wt βgal activity, transduction of Hela cells of 8.3 % wt and a Representative avg βgal activity (RLU/ug protein), transduction of Hela cells at 1000 particles per cell (RLU/ug protein) of 44400. For “KO1 mutant Ad5 fiber protein (S408E, P409A) (from UniProt P11818 1-581)”, the Mean % wt βgal activity, transduction of Hela cells was 1.4 % wt, the Representative avg βgal activity (RLU/ug protein), transduction of Hela cells at 1000 particles per cell (RLU/ug protein) was 7620 and the fold reduction of β-galactosidase activity against wildtype fiber, Hela cells was 70 fold. Molecule “KO3 mutant Ad5 fiber protein (R460E) (from UniProt P11818 1-581)” has a Mean % wt βgal activity, transduction of Hela cells of 63.3 % wt and a Representative avg βgal activity (RLU/ug protein), transduction of Hela cells at 1000 particles per cell (RLU/ug protein) of 359000. In the case of “KO4 mutant Ad5 fiber protein (ΔG509, K510) (from UniProt P11818 1-581)”, the Mean % wt βgal activity, transduction of Hela cells is reported as 38.2 % wt and the Representative avg βgal activity (RLU/ug protein), transduction of Hela cells at 1000 particles per cell (RLU/ug protein) is reported as 213000. In the case of “KO8 mutant Ad5 fiber protein (N464T) (from UniProt P11818 1-581)”, the Mean % wt βgal activity, transduction of Hela cells is reported as 92.6 % wt and the Representative avg βgal activity (RLU/ug protein), transduction of Hela cells at 1000 particles per cell (RLU/ug protein) is reported as 470000.

These molecules were tested against T1, coxsackie adenovirus receptor (CAR), human, on HeLa cells (human, UniProt P78310 20-365) (assay: cell-based or functional assay).
T1 sequence: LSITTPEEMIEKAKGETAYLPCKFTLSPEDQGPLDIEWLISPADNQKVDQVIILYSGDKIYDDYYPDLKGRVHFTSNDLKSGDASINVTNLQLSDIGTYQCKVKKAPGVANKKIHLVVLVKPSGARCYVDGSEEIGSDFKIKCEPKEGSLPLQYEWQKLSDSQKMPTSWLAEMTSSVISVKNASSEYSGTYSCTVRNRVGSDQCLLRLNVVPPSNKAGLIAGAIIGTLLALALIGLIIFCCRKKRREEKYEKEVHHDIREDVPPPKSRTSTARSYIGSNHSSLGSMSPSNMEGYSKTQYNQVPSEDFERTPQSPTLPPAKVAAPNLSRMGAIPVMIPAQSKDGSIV
With B1 the “Mean % wt βgal activity, transduction of Hela cells” value was 91.1 % wt. With B2 the “Mean % wt βgal activity, transduction of Hela cells” value was 100 % wt.
